Reference: patent publication US20190091326A1

What was measured:
[1] = biological target: ZM233 V1/V2 scaffold, engineered, gD-tagged, produced in normal 293 HEK cells (herpes simplex virus 1; HIV-1 isolate ZM233); experiment: capture ELISA on 34.1 anti-gD; scaffold made in 293F cells
[2] = biological target: 1209 V1/V2/V3/C3 scaffold grown in GnTI- cells; experiment: ELISA, mAb titrated on scaffold, absorbance 492 nm; curve 505 (1209 GNTI-)
ZM197 V1/V2 wt (293) = experiment: ELISA; table row ZM197 V1/V2 wt, column 293
[3] = biological target: A244 V1/V2 scaffold, wildtype, gD-tagged, produced in GnTI- 293 HEK cells (herpes simplex virus 1; HIV-1 isolate A244) (UniProt Q69091); experiment: capture ELISA on 34.1 anti-gD; scaffold in medium of GnTI- cells
[4] = biological target: ZM233 V1/V2 scaffold, wildtype, gD-tagged, produced in GnTI- 293 HEK cells (herpes simplex virus 1; HIV-1 isolate ZM233); experiment: as above
Bal.01 V1/V2 wt (GnTI-) = experiment: ELISA; table row Bal.01 V1/V2 wt, GnTI-
[5] = biological target: ZM233 V1/V2 scaffold, engineered, gD-tagged, produced in GnTI- 293 HEK cells (herpes simplex virus 1; HIV-1 isolate ZM233); experiment: ELISA; table row ZM233 V1/V2.eng1*, GnTI-
ZM233 mutant - N156 = experiment: ELISA, PG9 titrated, absorbance 490 nm
ZM233 mutant + N156 = experiment: ELISA, PG9 titrated, absorbance 490 nm
[6] = biological target: JRFL-E168K V1/V2 scaffold, engineered, gD-tagged, produced in GnTI- 293 HEK cells (herpes simplex virus 1; HIV-1 isolate JRFL); experiment: ELISA; table row JRFL-E168K V1/V2.eng1*, GnTI-
[7] = biological target: 108060 I169K/E172V/T161M/N156I/S164G/D167G V1/V2 scaffold, gD-tagged, produced in GnTI- 293 HEK cells (herpes simplex virus 1; HIV-1 isolate 108060); experiment: capture ELISA on 34.1 anti-gD; purified scaffold made in GnTI- cells
[8] = biological target: MN V1/V2 scaffold, engineered, gD-tagged, produced in GnTI- 293 HEK cells (herpes simplex virus 1; HIV-1 isolate MN); experiment: as above
[9] = biological target: JRFL-E168K V1/V2 scaffold, engineered, gD-tagged, produced in GnTI- 293 HEK cells (herpes simplex virus 1; HIV-1 isolate JRFL); experiment: as above
[10] = biological target: ZM233 V1/V2 scaffold, engineered, Strep-tag/6x Histidine-tag, expressed in normal 293 cells (HIV-1 isolate ZM233); experiment: SPR (Biacore 3000), PG9 captured on anti-human Fc, scaffold flowed, 1:1 Langmuir fit
[11] = biological target: A244 V1/V2 scaffold, engineered, Strep-tag/6x Histidine-tag, produced in normal 293 cells (HIV-1 isolate A244); experiment: as above
[12] = biological target: A244 V1/V2 scaffold, wildtype (unmutated), Strep-tag/6x Histidine-tag, expressed in GnTI- cells (HIV-1 isolate A244); experiment: as above
[13] = biological target: 108060 I169K/E172V/T161M/N156I/S164G/D167G V1/V2 scaffold, gD-tagged, produced in GnTI- 293 HEK cells (herpes simplex virus 1; HIV-1 isolate 108060); experiment: ELISA; table row 108060 V1/V2.eng1*, GnTI-

PG9 monoclonal antibody showed an EC50 [1] of 0.002 µg/mL, an EC50 [2] of 0.14 µg/mL and an EC50 (ZM197 V1/V2 wt (293)) of 2.74 µg/mL. The EC50 [3] was 0.00074 µg/mL, the EC50 [4] was 0.0095 µg/mL and the EC50 (Bal.01 V1/V2 wt (GnTI-)) was 0.0802 µg/mL. The EC50 [5] was 0.0085 µg/mL, the EC50 (read off the curve) (ZM233 mutant - N156) was 0.03 µg/mL and the EC50 (read off the curve) (ZM233 mutant + N156) was 0.1 µg/mL. For the same substance, the EC50 [6] was 0.013 µg/mL, the EC50 [7] was 0.0068 µg/mL and the EC50 [8] was 0.0079 µg/mL. For the same substance, the EC50 [9] was 0.013 µg/mL, the koff [10] was 0.0023 s⁻¹ and the kon [10] was 40000 M⁻¹ s⁻¹. It also gave a kon [11] of 40000 M⁻¹ s⁻¹, a kon [12] of 53000 M⁻¹ s⁻¹ and an EC50 [13] of 0.00685 µg/mL.
